From US20050048594

Molecular target: T1, peptide ARKRERAF(3-CF3)SFGHHA
T1 chain: ARKRERAFSFGHHA

B1: serine/threonine p21-activated kinase PAK4 (protein)
chain: SPQREPQRVSHEQFRAALQLVVDPGDPRSYLDNFIKIGEGSTGIVCIATVRSSGKLVAVKKMDLRKQQRRELLFNEVVIMRDYQHENVVEMYNSYLVGDELWVVMEFLEGGALTDIVTHTRMNEEQIAAVCLAVLQALSVLHAQGVIHRDIKSDSILLTHDGRVKLSDFGFCAQVSKEVPRRKSLVGTPYWMAPELISRLPYGPEVDIWSLGIMVIEMVDGEPPYFNEPPLKAMKMIRDNLPPRLKNLHKVSPSLKGFLDRLLVRDPAQRATAAELLKHPFLAKAGPPASIVPLMRQNRTR
For B1, the “phosphorylation of the peptide followed by 19F NMR (150 nM PAK4)” value was “the reaction in the presence of PAK4 results in the appearance of a 19F signal with a chemical shift similar to the shift of a phosphorylated peptide” and the “speed of the enzymatic reaction relative to AKT1” value was “The speed of the enzymatic reaction of PAK4 is only 1/22 of the speed of AKT1”.
